Laboratory results reported in patent publication US20130202618A1.

Legend:
[1] = molecular target: C. difficile toxin B from strain CCL678 (ribotype 027, BI/NAP1/027) (Clostridium difficile strain CCL678); experiment: cell-based or functional assay
[2] = molecular target: C. difficile toxin A from strain Pitt 07 (ribotype 078) (Clostridium difficile strain Pitt 07); experiment: cell-based or functional assay

| Substance | EC50, neutralization of supernatant cytotoxicity on CHO-K1 cells [1] [nM] | EC50, neutralization of supernatant cytotoxicity on T-84 cells [2] [nM] |
| --- | --- | --- |
| comparator human anti-toxin B monoclonal antibody CDB-1 | > 100 | – |
| comparator human anti-toxin A monoclonal antibody CDA-1 | – | > 100 |
